The data set concerns the molecule itself. Nature of the data set: SDS-PAGE and western blot, self-association.

Residue numbers refer to the chain shown, from its start. In names and notes the source's numbering stands.

B1: PNMA2 C136S mutant (other)
chain: MALALLEDWCRIMSVDEQKSLMVTGIPADFEEAEIQEVLQETLKSLGRYRLLGKIFRKQENANAVLLELLEDTDVSAIPSEVQGKGGVWKVIFKTPNQDTEFLERLNLFLEKEGQTVSGMFRALGQEGVSPATVPSISPELLAHLLGQAMAHAPQPLLPMRYRKLRVFSGSAVPAPEEESFEVWLEQATEIVKEWPVTEAEKKRWLAESLRGPALDLMHIVQADNPSISVEECLEAFKQVFGSLESRRTAQVRYLKTYQEEGEKVSAYVLRLETLLRRAVEKRAIPRRIADQVRLEQVMAGATLNQMLWCRLRELKDQGPPPSFLELMKVIREEEEEEASFENESIEEPEERDGYGRWNHEGDD
In the case of B1, the binding result was “binds”.

B2: PNMA2 C10S mutant (other)
chain: B1 chain with C10S, S136C
Regarding B2, the binding result is given as “binds”.

B3: wild type PNMA2 (other)
chain: B1 chain with S136C
notes: Self-associating capsid subunit
As for B3, the binding result was “binds”.

B4: PNMA2 C310S mutant (other)
chain: B1 chain with S136C, C310S
B4: the binding result is given as “binds”.

B5: PNMA2 C233S mutant (other)
chain: B1 chain with S136C, C233S
On to B5, for which the binding result was “binds”.
